Results reported in US7910100B2, “Antibodies directed to the mammalian EAG1 ion channel protein” (Max-Planck-Gesellschaft zur Forderung der Wissen, priority 2004, dated 2011).

T1: Eag1 in rat brain sections (Rattus norvegicus, UniProt Q63472)
T1 construct: from tissue; host or cells: brain (cerebellum, hippocampus) of postnatal-day 21 Sprague Dawley rats
T1 sequence (Q63472 1-962): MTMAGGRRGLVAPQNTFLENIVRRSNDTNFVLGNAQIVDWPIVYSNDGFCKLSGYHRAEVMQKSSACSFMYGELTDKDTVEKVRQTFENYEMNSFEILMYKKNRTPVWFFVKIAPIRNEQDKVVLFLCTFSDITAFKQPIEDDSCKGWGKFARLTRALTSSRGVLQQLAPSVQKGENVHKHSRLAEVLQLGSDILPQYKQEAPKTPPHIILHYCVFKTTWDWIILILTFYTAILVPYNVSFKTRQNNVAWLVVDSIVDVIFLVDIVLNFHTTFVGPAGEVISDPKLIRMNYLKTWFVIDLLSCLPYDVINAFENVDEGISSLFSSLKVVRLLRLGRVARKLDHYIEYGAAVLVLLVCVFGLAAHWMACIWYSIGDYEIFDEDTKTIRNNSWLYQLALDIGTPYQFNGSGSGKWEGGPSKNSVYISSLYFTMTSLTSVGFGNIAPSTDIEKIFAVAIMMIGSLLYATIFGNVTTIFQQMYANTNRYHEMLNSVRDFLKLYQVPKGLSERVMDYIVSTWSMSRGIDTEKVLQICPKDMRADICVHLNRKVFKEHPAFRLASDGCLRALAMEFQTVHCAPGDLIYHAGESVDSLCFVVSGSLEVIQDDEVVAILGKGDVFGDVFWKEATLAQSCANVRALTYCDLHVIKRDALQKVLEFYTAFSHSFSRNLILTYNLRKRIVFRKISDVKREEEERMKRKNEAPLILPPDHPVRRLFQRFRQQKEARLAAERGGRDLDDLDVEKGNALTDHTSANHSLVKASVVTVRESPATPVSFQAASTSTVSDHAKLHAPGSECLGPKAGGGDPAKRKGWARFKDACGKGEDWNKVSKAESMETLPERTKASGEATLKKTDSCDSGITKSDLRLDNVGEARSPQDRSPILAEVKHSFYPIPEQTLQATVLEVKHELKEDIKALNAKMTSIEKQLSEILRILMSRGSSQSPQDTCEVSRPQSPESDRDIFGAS


Legend:
[1] = tested on: Eag1 peptides (pore domain / CAD domain of immunogen); experiment: Epitope mapping on SPOT cellulose membrane with 76 overlapping peptides; format: binding; conditions: 76 overlapping 13 mer peptides, shift 2 aa; antibody diluted 1:2000
[2] = tested on: Eag1 overexpressing CHO K1 cells; experiment: Internalization of Cy3-labelled antibodies, immunofluorescence on living cells; format: cell-based; conditions: Cy3-labelled antibody; for binding to Eag1 antigen on living cells: overnight; for internalization into cells: within 24 h
Method: In order to analyse the internalization properties of the anti-Eag1 antibodies of invention, CHO cells were grown on coverslips and incubated in normal medium (Ham's F12, 10% FCS) overnight (37 C, 5% CO2) with anti-Eag1 antibodies ImAb1 and ImAb4 directly labeled with Cy3 (100 μg). Cultures were thereafter incubated with app. 2 μg/ml Hoechst 33342 for 10 min.

[3] = molecular target: T1, Eag1 in rat brain sections; experiment: Immunohistochemistry of rat brain sections (cerebellum, hippocampus); format: binding; conditions: ImAb1 4 μg/ml, ImAb4 2 μg/ml, overnight 4° C.
Method: Cross-reactivity of anti-Eag1 antibodies of the invention were further analysed by Immunohistochemistry studies of rat brain sections of the cerebellum and the hippocampus. For the IHC, two postnatal-day 21 Sprague Dawley rats were anesthetized with a mixture of ketamine HCl (Ketaset; 100 mg/ml; Fort Dodge Laboratories, Inc., U.S.A.) and xylazine (Rompun; 20 mg/ml; Mile, Inc., U.S.A.) at 0.1 ml/100 g body weight. The animals were transcardially perfused with a fixative consisting of 4% p-formaldehyde in 0.12 M phosphate buffer (pH 7.2). After perfusion, brains were removed, fixed for an additional hour at 4° C., rinsed three times with PBS and stored overnight at 4° C. Coronal and sagital sections (40-50 μm) were cut in cold PBS using a vibratome (Leica, Vienna, Austria). Slices were incubated for 1 h with 10% normal goat serum in PBS, then with anti-Eag1 antibodies ImAb1 (4 μg/ml) and ImAb4 (2 μg/ml) in PBS overnight at 4° C. and processed using the avidin/biotin-peroxidase system (Vectastain kit, Vector Laboratories, Burlingame, Calif.). Antibody binding was visualized using 3′-3-diaminobenzidine tetrahydrochloride (DAB; DAB substrate kit for peroxidase, Vector Laboratories). […] Sections were analysed with a Zeiss Axiophot microscope.

Molecule | peptide spots bound (epitope) [1] | binding to Eag1 antigen on living cells [2] | internalization into cells [2] | cross-reactivity with rat (IHC staining) [3]
ImAb1: mouse monoclonal anti-Eag1 antibody; VL SEQ ID NO: 43, VH SEQ ID NO: 44; binds C-terminus of Eag1 (antibody, listed as Mus musculus) heavy: MNFGFSLIFLVLVLKGVQCEVKLVESGGGLVKPGGSLKLSCAASGFTFSNYAMSWVRQTPEKRLEWVASISSDGDTYFPDNVKGRFTISRENAGNILFLQMSSLRSEDTAMYYCARGFMITFWGQGTLVTVSAAKTTPPSVYPLAPGCGDTTGSSVTLGCLVKGYFPESVTVTWNSGSLSSSVHTFPALLQSGLYTMSSSVTVPSSTWPSQTVTCSVAHPASSTTVD light: MDMRAPAQFFGILLLWFPGIRCDIKMTQSPSSMYASLGERVTITCKASQDIKSYLSWYQQKPWKSPKILIYYATSLADGVPSRISGSGSGQDYSLTISSLESDDTATYYCLQHGESPYTFGGGTKLEIKRADAAPTVSIFPPSSEQLTSGGASVVCFLNNFYPKDINVKWKIDGSERQNGVLNSWTDQDSKDSTYSMSSTLTLTKDEYERHNSYTCEATHKTSTSPIVKSFNRNEC | bound weakly to peptides 21-24 | bind to Eag1 antigen on living cells expressing the antigen | are internalized into the cells | cross-reacts with other mammalian species such as rat
ImAb4: mouse monoclonal anti-Eag1 antibody, IgG2b kappa; light chain SEQ ID NO: 2, heavy chain SEQ ID NO: 4 (antibody, listed as Mus musculus) heavy: MRVLILLWLFTAFPGILSDVQLQESGPGLVKPSQSLSLTCTVTGYSITSDYAWNWIRQFPGNKLEWMGYISYSGSTIYNPSLKSRISITRDTSKNQFFLQLNSVTTEDTATYYCARFGNYGNTLNYWGQGTSVTVSSAKTTPPSVYPLAPGCGDTTGSSVTLGCLVKGYFPESVTVTWNSGSLSSSVHTFPALLQSGLYTMSSSVTVPSSTWPSQTVTCSVAHPASSTTVDKKLEPSGPISTINPCPPCKECHKCPAPNLEGGPSVFIFPPNIKDVLMISLTPKVTCVVVDVSEDDPDVQISWFVNNVEVHTAQTQTHREDYNSTIRVVSTLPIQHQDWMSGKEFKCKVNNKDLPSPIERTISKIKGLVRAPQVYILPPPAEQLSRKDVSLTCLVVGFNPGDISVEWTSNGHTEENYKDTAPVLDSDGSYFIYSKLNMKTSKWEKTDSFSCNVRHEGLKNYYLKKTISRSPGK light: MKLPVRLLVLMFWIPASSSDVVMTQTPLSLPVSLGDQASISCRSSQSLVHSNGNTYLHWYLQKPGQSPKLLIYKVSNRFSGVPDRFSGSGSGTDFTLKISRVEAEDLGVYFCSQSTHVPPTFGGGTKLEIKRADAAPTVSIFPPSSEQLTSGGASVVCFLNNFYPKDINVKWKIDGSERQNGVLNSWTDQDSKDSTYSMSSTLTLTKDEYERHNSYTCEATHKTSTSPIVKSFNRNEC | bound at spots 3-8 | bind to Eag1 antigen on living cells expressing the antigen | are internalized into the cells | cross-reacts with other mammalian species such as rat
